Data taken from patent US20060018906A1.

Biological target: human tumor necrosis factor-α (TNFα) (human) (UniProt P01375)
Assay: cell-based or functional assay

Sequence of human tumor necrosis factor-α (TNFα) (human) (P01375 77-233): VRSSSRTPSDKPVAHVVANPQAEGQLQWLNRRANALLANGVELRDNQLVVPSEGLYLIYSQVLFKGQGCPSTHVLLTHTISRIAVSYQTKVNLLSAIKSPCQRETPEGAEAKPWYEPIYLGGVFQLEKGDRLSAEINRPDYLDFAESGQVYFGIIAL

B1: chimeric mouse/human IgG1 anti-platelet mAb (7E3) (antibody, INN chains, looked up, V domains shown)
VH: EVQLQQSGTVLARPGASVKMSCEASGYTFTNYWMHWVKQRPGQGLEWIGAIYPGNSDTSYIQKFKGKAKLTAVTSTTSVYMELSSLTNEDSAVYYCTLYDGYYVFAYWGQGTLVTVSA
VL: EIVLTQSPVTLSVTPGDSVSLSCRASRDISNNLHWFQQTSHESPRLLIKYASQSMSGIPSRFSGSGSGTDFTLSINSVETEDFGMYFCQQTNSWPYTFGGGTKLEIK
modifications: IgG1
For B1, the IL-6 concentration in FS-4 fibroblast supernatant; rhTNF 0.3 ng/ml, antibody 4 µg/ml was 1.6 ng/mL, the IL-6 concentration in FS-4 fibroblast supernatant; rhTNF 1.5 ng/ml, antibody 4 µg/ml was 1.96 ng/mL and the IL-6 concentration in FS-4 fibroblast supernatant; rhTNF 7.5 ng/ml, antibody 4 µg/ml was 2.16 ng/mL.
